# Results reported in patent US20140031769A1, “THERAPEUTIC AGENT FORMULATIONS FOR IMPLANTED DEVICES” (ForSight Vision4, Inc., priority 2010, published 2014).
# Like-named read-outs stand apart in the source and are kept apart here.
# Legend:
# [1] = Solubility of therapeutic agent suspension in buffer; type: physicochemical; conditions: aqueous buffer; in the buffer at 37C
# Source text: The therapeutic agent stored in the reservoir of the container comprises at least one of a solid comprising the therapeutic agent, a solution comprising the therapeutic agent, a suspension comprising the therapeutic agent, particles comprising the therapeutic agent adsorbed thereon, or particles reversibly bound to the therapeutic agent. For example, reservoir may comprise a suspension of a cortico-steroid such as triamcinolone acetonide to treat inflammation of the retina.
# [2] = Critical micelle concentration (CMC) of surfactant, surface tension with Wilhelmy plate; type: physicochemical
# Source text: The CMC can be determined from a variety of techniques such as measurements of surface tension using a Wilhelmy plate. The CMC for a particular surfactant may be dependent on a variety of parameters such as the concentrations of other components in the formulation and the temperature.
# Surface tension measurements may be performed with a Wilhemy plate to determine the CMC; i.e., polysorbate 20 concentration threshold for constant surface tension. Devices can then be filled with formulations containing polysorbate 20 concentrations that are 0, 1, 5 and 20 times the CMC. These devices can be subjected to drug release testing and stability assays as described in Example 2.
# [3] = human, cited from earlier work
# [4] = RRI of 0.02 and reservoir volume of 25 uL; as described in U.S. Pub. No. 2010/0255061; cited from earlier work
# [5] = monkey, cited from earlier work
# [6] = rabbit, cited from earlier work
molecule,measurement,setting,value
CC1(C)O[C@@H]2C[C@H]3[C@@H]4CCC5=CC(=O)C=C[C@]5(C)[C@@]4(F)[C@@H](O)C[C@]3(C)[C@]2(C(=O)CO)O1 [triamcinolone acetonide],solubility,[1],~19 µg/mL
Polysorbate 20,CMC (wt %),[2]; CMC 1e−5 M,0.001% wt %
same,CMC (wt %),[2]; CMC 8e−5 M,0.01% wt %
"Ranibizumab: antibody derivative (Fab fragment), VEGF inhibitor; active ingredient of Lucentis™",half-life in the vitreous,[3]; listed as Lucentis™,about nine
same,half-life in the vitreous,[3]; listed as ranibizumab,~220 h
same,half-life in device 100,[4],about 100 days
same,half-life in the vitreous,[5]; listed as Lucentis™,two to four
same,half-life in the vitreous,[5]; listed as ranibizumab,approximately 3 days
same,half-life in the vitreous,[6]; listed as Lucentis™,two to four
same,half-life in the vitreous,[6]; listed as ranibizumab,approximately 3 days
